According to PMC3758481:

Legend:
[1] = target: spin labeled L705C mutant of C99 (human) (UniProt P05067); experiment: continuous wave EPR of spin labeled protein
[2] = target: spin labeled S697C mutant of C99 (human) (UniProt P05067); experiment: continuous wave EPR of spin labeled protein

Substance | KD, average of four fits (sites S697C and L705C, two fields each) [1] [mol%] | KD, average of four fits (sites S697C and L705C, two fields each) [2] [mol%]
spin labeled L705C mutant of C99 (from UniProt P05067 672-770) (domain or fragment) | 0.44 | 
spin labeled S697C mutant of C99 (from UniProt P05067 672-770) (domain or fragment) |  | 0.44
